Source: patent US20220009992A1 (published 2022)

Tests used:
[1] = biological target: T1, CEAM3 peptide on HLA-A*02:01 (human); experiment: cytokine release
T1 peptide: SMPLSVAEG

[2] = biological target: T2, AL1L1 peptide on HLA-A*02:01 (human); experiment: cytokine release
T2 peptide: VLELTEAEL

[3] = biological target: T3, GALP peptide on HLA-A*02:01 (human); experiment: cytokine release
T3 peptide: VLLLSLAET

[4] = biological target: T4, OR2J1 peptide on HLA-A*02:01 (human); experiment: cytokine release
T4 peptide: VLALGTAEC

[5] = biological target: T5, ULK1 peptide on HLA-A*02:01 (human); experiment: cytokine release
T5 peptide: VLYLKVAEL

[6] = biological target: T6, OR2J2 peptide on HLA-A*02:01 (human); experiment: cytokine release
T6 peptide: VLALGIAEC

[7] = biological target: T7, IN80B peptide on HLA-A*02:01 (human); experiment: cytokine release
T7 peptide: MLPLPVAEG

[8] = biological target: T8, EHF (peptide #10) peptide on HLA-A*02:01 (human); experiment: cytokine release
T8 peptide: VLLLSLAEI

[9] = biological target: T9, YN010 peptide on HLA-A*02:01 (human); experiment: cytokine release
T9 peptide: VLALWEAEV

[10] = biological target: T10, DNHD1 peptide on HLA-A*02:01 (human); experiment: cytokine release
T10 peptide: VLELLLAEL

[11] = biological target: T11, MLEC peptide on HLA-A*02:01 (human); experiment: cytokine release
T11 peptide: VLVLKFAEV

[12] = biological target: T12, ADPRH peptide on HLA-A*02:01 (human); experiment: cytokine release
T12 peptide: VMHLATAEA

[13] = biological target: T13, LRCH3 peptide on HLA-A*02:01 (human); experiment: cytokine release
T13 peptide: DLPLRVAEI

[14] = biological target: T14, CHPF2 peptide on HLA-A*02:01 (human); experiment: cytokine release
T14 peptide: VLPLLVAEA

[15] = biological target: T15, CHPF2 peptide on HLA-A*02:01 (human); experiment: cytokine release
T15 peptide: VLPLIVAEA

[16] = biological target: T16, mesothelin (human MSLN, isoform 1, SEQ ID NO:50) peptide on HLA-A*02:01 (human); experiment: multimer staining
T16 peptide: VLPLTVAEV

[17] = biological target: T17, mesothelin (human MSLN, isoform 1, SEQ ID NO:50) peptide on HLA-A*02:01 (human); experiment: multimer staining
T17 peptide: SLLFLLFSL

B1: Meso530-11A (TCR, V domains shown)
Valpha: GEDVEQSLFLSVREGDSSVINCTYTDSSSTYLYWYKQEPGAGLQLLTYIFSNMDMKQDQRLTVLLNKKDKHLSLRIADTQTGDSAIYFCAETPGYGGATNKLIFGTGTLLAVQP
Vbeta: DTEVTQTPKHLVMGMTNKKSLKCEQHMGHRAMYWYKQKAKKPPELMFVYSYEKLSINESVPSRFSPECPNSSLLNLHLHALQPEDSALYLCASSHGSLNTEAFFGQGTRLTVV
B1: no recognition [1]; no recognition [2]; no recognition [3]. B1: no recognition [4]; no recognition [5]; no recognition [6]. B1: no recognition [7]; no recognition [8]; no recognition [9]. B1: no recognition [10]; no recognition [11]; no recognition [12]. B1: no recognition [13]; no recognition [14]; no recognition [15]. B1: recognises [16].

B2: Meso20-3B (TCR, V domains shown)
Valpha: GQSLEQPSEVTAVEGAIVQINCTYQTSGFYGLSWYQQHDGGAPTFLSYNALDGLEETGRFSSFLSRSDSYGYLLLQELQMKDSASYFCAVNDASKIIFGSGTRLSIRP
Vbeta: DAGVIQSPRHEVTEMGQEVTLRCKPISGHDYLFWYRQTMMRGLELLIYFNNNVPIDDSGMPEDRFSAKMPNASFSTLKIQPSEPRDSAVYFCASSFTSGSYEQYFGPGTRLTVT
B2: recognises [17].

B3: Meso530-11B (TCR, V domains shown)
Valpha: KQEVTQIPAALSVPEGENLVLNCSFTDSAIYNLQWFRQDPGKGLTSLLLIQSSQREQTSGRLNASLDKSSGRSTLYIAASQPGDSATYLCAVRLLFAQGGSEKLVFGKGTKLTVNP
Vbeta: ETGVTQSPTHLIKTRGQQVTLRCSSQSGHNTVSWYQQALGQGPQFIFQYYREEENGRGNFPPRFSGLQFPNYSSELNVNALELDDSALYLCASSFAGGRSDTQYFGPGTRLTVL
B3: no recognition [1]; no recognition [2]; no recognition [3]. B3: no recognition [4]; no recognition [5]; no recognition [6]. B3: no recognition [7]; no recognition [9]; no recognition [10]. B3: no recognition [11]; no recognition [12]; no recognition [13]. B3: no recognition [14]; no recognition [15]; recognises [16].
